Experiment [1] has as its target T1, soluble mouse Fc-human NKG2D dimer (human, UniProt P26718 78-216, limits assumed).
T1 construct: also called NKG2D-mFc; human NKG2D fused to a mouse Fc
T1 sequence (looked up): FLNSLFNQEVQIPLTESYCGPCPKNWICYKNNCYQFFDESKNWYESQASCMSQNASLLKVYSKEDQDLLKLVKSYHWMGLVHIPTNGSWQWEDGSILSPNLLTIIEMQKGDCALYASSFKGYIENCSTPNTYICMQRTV
Nature of the experiment: SPR, mAb captured by anti-hFc, 37C. The procedure: Kinetics and affinity of various NKG2D-binding domains were assessed by surface plasmon resonance using Biacore 8K instrument (GE Healthcare). Anti-human Fe antibody was immobilized on a CM5 chip using standard amine coupling chemistry. Human monoclonal antibodies containing various NKG2D-binding domains were captured on the anti-human Fc chip at a density of approximately 100 RU. […] Surfaces were regenerated between cycles by quick injection of 10 mM glycine, pH 1.8. To obtain kinetic rate constants, double-referenced data were fit to a 1:1 interaction model using Biacore 8K Evaluation software (GE Healthcare). The equilibrium binding constant KD was determined by the ratio of dissociation constant kd and association constant kₐ (kd/kₐ).

The target of experiment [2] is T2, human CEACAM5 on cells (human, UniProt P06731 35-685).
T2 construct: tumour cell lines with endogenous CEACAM5, or B16F10 engineered to express hCEACAM5; also called CEACAM5 on MKN-45, HPAF-II, SK-CO-1, LoVo, BxPC-3, Kato-III, LS-174T, ZR-75-30; hCEACAM5-B16F10
T2 sequence: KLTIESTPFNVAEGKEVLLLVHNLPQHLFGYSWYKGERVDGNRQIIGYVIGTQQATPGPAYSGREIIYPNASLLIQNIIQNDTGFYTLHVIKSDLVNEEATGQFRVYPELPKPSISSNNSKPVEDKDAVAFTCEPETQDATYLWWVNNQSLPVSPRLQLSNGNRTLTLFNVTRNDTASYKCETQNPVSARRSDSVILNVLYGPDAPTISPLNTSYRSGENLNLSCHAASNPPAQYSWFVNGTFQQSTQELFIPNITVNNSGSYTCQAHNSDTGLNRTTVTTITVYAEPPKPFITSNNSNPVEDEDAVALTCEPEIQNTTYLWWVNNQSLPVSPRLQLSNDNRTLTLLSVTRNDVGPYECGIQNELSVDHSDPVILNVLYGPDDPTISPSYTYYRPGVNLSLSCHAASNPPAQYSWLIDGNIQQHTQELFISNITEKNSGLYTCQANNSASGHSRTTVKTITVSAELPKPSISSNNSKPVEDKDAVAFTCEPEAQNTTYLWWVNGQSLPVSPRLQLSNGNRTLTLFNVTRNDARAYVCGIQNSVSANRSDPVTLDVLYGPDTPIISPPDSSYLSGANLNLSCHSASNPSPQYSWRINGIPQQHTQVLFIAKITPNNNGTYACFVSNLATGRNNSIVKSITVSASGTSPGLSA
Nature of the experiment: flow cytometry, BxPC-3 cells. A general note: In flow cytometry, cells or beads pass a laser one at a time.

Experiment [3] concerns the target T2, human CEACAM5 on cells. Kind of experiment: flow cytometry, LoVo cells.
For experiment [4], the target named is T2, human CEACAM5 on cells. Kind of experiment: flow cytometry, MKN-45 cells.
For experiment [5], the target named is T2, human CEACAM5 on cells. Nature of the experiment: flow cytometry, Kato-III cells.
Experiment [6] deals with T2, human CEACAM5 on cells. Kind of experiment: flow cytometry, SK-CO-1 cells.
In experiment [7] the target is T3, human NKG2D-Fc (human, UniProt P26718 73-216).
T3 construct: extracellular domain; also called recombinant human NKG2D-Fc; NKG2D-Fc-biotin
T3 sequence (looked up): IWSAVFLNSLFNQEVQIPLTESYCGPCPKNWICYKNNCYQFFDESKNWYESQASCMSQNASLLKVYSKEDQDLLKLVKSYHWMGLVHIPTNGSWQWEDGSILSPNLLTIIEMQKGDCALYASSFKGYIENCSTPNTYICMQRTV
Nature of the experiment: ELISA on plate-adsorbed recombinant human NKG2D-Fc, anti-human kappa-HRP, OD 450 nm. The text has this:
(§1) The nucleic acid sequences of human, mouse or cynomolgus NKG2D ectodomains were fused with nucleic acid sequences encoding human IgG1 Fc domains and introduced into mammalian cells to be expressed. After purification, NKG2D-Fc fusion proteins were adsorbed to wells of microplates. After blocking the wells with bovine serum albumin to prevent non-specific binding, NKG2D-binding domains were titrated and added to the wells pre-adsorbed with NKG2D-Fc fusion proteins. Primary antibody binding was detected using a secondary antibody which was conjugated to horseradish peroxidase and specifically recognizes a human kappa light chain to avoid Fc cross-reactivity. 3,3′,5,5′-Tetramethylbenzidine (TMB), a substrate for horseradish peroxidase, was added to the wells to visualize the binding signal, whose absorbance was measured at 450 nm and corrected at […]. An NKG2D-binding domain clone, an isotype control or a positive control (comprising heavy chain and light chain variable domains selected from the group consisting of: SEQ ID NOs: 526-529, or anti-mouse NKG2D clones MI-6 and CX-5 available at eBioscience) was added to each well.

The target in experiment [8] is T4, cynomolgus NKG2D-Fc (cynomolgus monkey, UniProt P61252 73-216).
T4 construct: extracellular domain
T4 sequence (looked up): T3 sequence (looked up) with D43N, T133I
Nature of the experiment: ELISA on plate-adsorbed recombinant cynomolgus NKG2D-Fc, anti-human kappa-HRP, OD 450 nm.
From the text: as §1

Experiment [9] deals with T5, mouse NKG2D-Fc (mouse, UniProt O54709 90-232).
T5 construct: extracellular domain; also called Mouse NKG2D-Fc-biotin
T5 sequence (looked up): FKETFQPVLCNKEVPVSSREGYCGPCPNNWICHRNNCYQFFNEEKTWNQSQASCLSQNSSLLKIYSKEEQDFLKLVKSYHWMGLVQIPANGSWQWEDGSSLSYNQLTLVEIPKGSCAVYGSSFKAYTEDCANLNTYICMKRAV
Kind of experiment: ELISA on plate-adsorbed recombinant mouse NKG2D-Fc, anti-human kappa-HRP, OD 450 nm.
From the text: as §1

The target in experiment [10] is T3, human NKG2D-Fc. Kind of experiment: competition ELISA on plate-adsorbed human NKG2D-Fc; blocked ligand ULBP-6-His-biotin. The protocol: Recombinant human NKG2D-Fc proteins were adsorbed to wells of a microplate, and the wells were blocked with bovine serum albumin to reduce non-specific binding. A saturating concentration of ULBP-6-His-biotin was added to the wells, followed by addition of the NKG2D-binding domain clones. After a 2-hour incubation, wells were washed and ULBP-6-His-biotin that remained bound to the NKG2D-Fc coated wells was detected by streptavidin-conjugated to horseradish peroxidase and TMB substrate. Absorbance was measured at 450 nm and corrected at […]. After subtracting background, specific binding of NKG2D-binding domains to the NKG2D-Fc proteins was calculated from the percentage of ULBP-6-His-biotin that was blocked from binding to the NKG2D-Fc proteins in wells.
Background: ELISA stands for enzyme-linked immunosorbent assay.

Usually Kd stands for a measure of binding affinity in units of concentration. Read a high Kd as weaker binding. Usually koff stands for a measure of how fast the partners let go of each other. A higher koff goes with fast dissociation. The term kon denotes a measure of how fast the partners come together. Low readings indicate slower complex formation, high ones faster complex formation. Usually EC50 stands for the concentration at which the effect is half-maximal. Read a high EC50 as a less potent agent. For orientation: EC50 (read off the curve) means the concentration needed to bring the measured effect to its halfway point.

Changes are numbered by the printed parent chain.

B1: ADI-29379 (E79) (antibody, V domains shown)
VH: QVQLVQSGAEVKKPGASVKVSCKASGYTFTSYYMHWVRQAPGQGLEWMGIINPSGGSTSYAQKFQGRVTMTRDTSTSTVYMELSSLRSEDTAVYYCARGAPNYGDTTHDYYYMDVWGKGTTVTVSS
VL: EIVMTQSPATLSVSPGERATLSCRASQSVSSNLAWYQQKPGQAPRLLIYGASTRATGIPARFSGSGSGTEFTLTISSLQSEDFAVYYCQQYDDWPFTFGGGTKVEIK
In [1], B1 gave a Kd of 50.7 nM, a koff of 0.0225 s⁻¹ and a kon of 443000 M⁻¹ s⁻¹.

B2: ADI-29378 (E78) (antibody, V domains shown)
VH: QVQLVQSGAEVKKPGASVKVSCKASGYTFTSYYMHWVRQAPGQGLEWMGIINPSGGSTSYAQKFQGRVTMTRDTSTSTVYMELSSLRSEDTAVYYCAREGAGFAYGMDYYYMDVWGKGTTVTVSS
VL: B1 VL with M4L, V13L, N32Y, G50D, T53N, E70D, Q79E, S80P, Y91S, D93N
In experiment [1], B2 yielded a Kd of 58.5 nM, a koff of 0.0487 s⁻¹ and a kon of 832000 M⁻¹ s⁻¹.

B3: AB0755 (antibody, V domains shown)
VH: QVQLVQSGAEVKKPGASVKVSCKASGYTFTAYTIHWVRQAPGQGLEWMGYINPSSGYTEYNQKFKDRTTLTADTSIPTAYMELSRLRSDDTAVYYCTREGGLLWFDYWGQGTLVTVSS
VL: DIVMTQSPDSLAVSLGERATINCKSSHSLLYGNFQNNYLAWYQQKPGQPPKLLIYWASTRESGVPDRFSGSGSGTDFTLTISSLQAEDVAVYYCQQYYSYPYTFGGGTKLEIK
notes: the scFv entries carry the stabilising cysteines, which the mAb may lack; also called mAb corresponding to AB0264
Take B3: the EC50 in experiment [2] came to 3.37 nM; in experiment [3], 2.71 nM; in [4] it was 4.69 nM; in experiment [5], 1.16 nM; in [6] it was 5.84 nM. Further, the “Max FOB” value in [2] is 5 fold over background; in experiment [3], 7 fold over background; in experiment [4], 23 fold over background; in [5], 3 fold over background; in experiment [6], 14 fold over background.

B4: ADI-27705 (antibody, V domains shown)
VH: QVQLQQWGAGLLKPSETLSLTCAVYGGSFSGYYWSWIRQPPGKGLEWIGEIDHSGSTNYNPSLKSRVTISVDTSKNQFSLKLSSVTAADTAVYYCARARGPWSFDPWGQGTLVTVSS
VL: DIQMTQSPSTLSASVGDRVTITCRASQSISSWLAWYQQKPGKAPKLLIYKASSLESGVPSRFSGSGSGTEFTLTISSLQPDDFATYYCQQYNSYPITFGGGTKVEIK
notes: named as a single clone only on the drawing sheets
As for B4, the “EC50 (read off the curve)” value in [7] is roughly 0.6 nM. Further, the binding result in [8] and in experiment [9] was “binds” throughout.

B5: ADI-27741 (antibody, V domains shown)
VH: B4 VH
VL: DIQMTQSPSTLSASVGDRVTITCRASQSIGSWLAWYQQKPGKAPKLLIYKASSLESGVPSRFSGSGSGTEFTLTISSLQPDDFATYYCQQSNSYYTFGGGTKVEIK
notes: as for B4
With B5, the binding result in [7], in [8] and in experiment [9] was “binds” each time.

B6: ADI-27724 (antibody, V domains shown)
VH: B4 VH
VL: not shown
notes: as for B4
As to B6, the figures for the “EC50 (read off the curve)” value in experiment [7], in experiment [8] and in [9] were roughly 10 nM, roughly 8 nM and roughly 8 nM, respectively.

B7: ADI-27740 (antibody, V domains shown)
VH: B4 VH
VL: B5 VL with S91Y, N92H, Y94F
notes: named as a single clone only on the drawing sheets; also called A40
B7: the “EC50 (read off the curve)” value is roughly 0.3 nM in [7], roughly 0.3 nM in [8] and roughly 0.2 nM in experiment [9]. Besides, the “IC50 (read off the curve)” value in [10] is roughly 6 nM.

B8: ADI-28226 (antibody, V domains shown)
VH: B4 VH
VL: DIQMTQSPSTLSASVGDRVTITCRASQSISSWLAWYQQKPGKAPKLLIYKASSLESGVPSRFSGSGSGTEFTLTISSLQPDDFATYYCQQYGSFPITFGGGTKVEIK
notes: named as a single clone only on the drawing sheets; also called C26
As to B8, the binding result in [7], in [8] and in experiment [9] was “binds” in each case.

B9: ADI-27744 (A44) (antibody, V domains shown)
VH: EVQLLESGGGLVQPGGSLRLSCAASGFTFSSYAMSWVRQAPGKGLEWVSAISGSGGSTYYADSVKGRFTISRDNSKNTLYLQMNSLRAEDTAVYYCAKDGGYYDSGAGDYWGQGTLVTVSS
VL: DIQMTQSPSSVSASVGDRVTITCRASQGIDSWLAWYQQKPGKAPKLLIYAASSLQSGVPSRFSGSGSGTDFTLTISSLQPEDFATYYCQQGVSYPRTFGGGTKVEIK
In experiment [1], B9 yielded a Kd of 10.1 nM, a koff of 0.00299 s⁻¹ and a kon of 295000 M⁻¹ s⁻¹.

B10: ADI-27749 (A49) (antibody, V domains shown)
VH: EVQLVESGGGLVKPGGSLRLSCAASGFTFSSYSMNWVRQAPGKGLEWVSSISSSSSYIYYADSVKGRFTISRDNAKNSLYLQMNSLRAEDTAVYYCARGAPMGAAAGWFDPWGQGTLVTVSS
VL: B9 VL with D30S, Y94F
On to B10, for which, in experiment [1], the Kd came out at 12.4 nM, the koff was 0.00489 s⁻¹ and the kon was 395000 M⁻¹ s⁻¹.

Values taken from patent publication US20240124607A1 (Merck Sharp & Dohme, published 2024).
